# Measured values from patent US20220064254A1 (Janssen / Centocor, published 2022).
# B1: CAR19 (KL2B359_HL) (other)
# chain: QVQLQESGPGLVKPSQTLSLTCTVSGNSITSDYAWNWIRQFPGKRLEWIGYISYSGSTTYNPSLKSRVTISRDTSKNQFSLKLSSVTAADTAVYYCATGYYYGSGFWGQGTLVTVSSGGSEGKSSGSGSESKSTGGSEIVLTQSPATLSLSPGERATLSCRASESVEYFGTSLMHWYQQKPGQPPRLLIYAASNVESGIPARFSGSGSGTDFTLTISSVEPEDFAVYFCQQTRKVPYTFGGGTKVEIKTSTPAPRPPTPAPTIASQPLSLRPEACRPAAGGAVHTRGLDFACDIYIWAPLAGTCGVLLLSLVITLYCKRGRKKLLYIFKQPFMRPVQTTQEEDGCSCRFPEEEEGGCELRVKFSRSADAPAYKQGQNQLYNELNLGRREEYDVLDKRRGRDPEMGGKPRRKNPQEGLYNELQKDKMAEAYSEIGMKGERRRGKGHDGLYQGLSTATKDTYDALHMQALPPR
# notes: also called KL2B359 HL CAR; rehumanized 11B6 HL CAR
# B2: CAR20 (KL2B359_LH) (other)
# chain: EIVLTQSPATLSLSPGERATLSCRASESVEYFGTSLMHWYQQKPGQPPRLLIYAASNVESGIPARFSGSGSGTDFTLTISSVEPEDFAVYFCQQTRKVPYTFGGGTKVEIKGGSEGKSSGSGSESKSTGGSQVQLQESGPGLVKPSQTLSLTCTVSGNSITSDYAWNWIRQFPGKRLEWIGYISYSGSTTYNPSLKSRVTISRDTSKNQFSLKLSSVTAADTAVYYCATGYYYGSGFWGQGTLVTVSSTSTPAPRPPTPAPTIASQPLSLRPEACRPAAGGAVHTRGLDFACDIYIWAPLAGTCGVLLLSLVITLYCKRGRKKLLYIFKQPFMRPVQTTQEEDGCSCRFPEEEEGGCELRVKFSRSADAPAYKQGQNQLYNELNLGRREEYDVLDKRRGRDPEMGGKPRRKNPQEGLYNELQKDKMAEAYSEIGMKGERRRGKGHDGLYQGLSTATKDTYDALHMQALPPR
# notes: also called KL2B359 LH CAR; rehumanized 11B6 LH CAR
# B3: CAR17 (KL2B413_HL) (other)
# chain: EVQLVESGGGLVQPGGSLRLSCAASGFTFSSYWMTWVRQAPGKGLEWVANIKQDGSERYYVDSVKGRFTISRDNAKNSLYLQMNSLRAEDTAVYYCARDQNYDILTGHYGMDVWGQGTTVTVSSGGSEGKSSGSGSESKSTGGSEIVLTQSPSFLSASVGDRVTITCRASQGISSYLSWYQQKPGKAPKLLIYATSTLQSGVPSRFSGSGSGTEFTLTISSLQPEDFATYYCQQLNSYPRTFGQGTKVEIKTSTPAPRPPTPAPTIASQPLSLRPEACRPAAGGAVHTRGLDFACDIYIWAPLAGTCGVLLLSLVITLYCKRGRKKLLYIFKQPFMRPVQTTQEEDGCSCRFPEEEEGGCELRVKFSRSADAPAYKQGQNQLYNELNLGRREEYDVLDKRRGRDPEMGGKPRRKNPQEGLYNELQKDKMAEAYSEIGMKGERRRGKGHDGLYQGLSTATKDTYDALHMQALPPR
# notes: also called KL2B413 HL CAR; pBD000091628
# B4: KL2B467 (antibody, V domains shown)
# VH: QVQLVESGGGVVQPGRSLRLSCAASGFTFSYYGMHWVRQAPGKGLEWVAFISYDGSNKYYADSVKGRFTISRDNSKNTLYLQMNSLRAEDTAVYYCAHLPYSGSYWAFDYWGQGTQVTVSS
# VL: QSVLTQPPSVSVAPGQTASITCGGDNIGSKSVHWYQQKPGQAPVLVVYDNSDRPSGIPERFSGSNSGTTATLTISRVEAGDEADYYCQVWDSSSDHPVVFGGGTKVTVLG
# notes: also called KL2B467 (Fab); KL2B467 Fab
# B5: KL2B242 (antibody, human IgG4 S228P, lambda, F234A L235A, V domains shown)
# VH: QVQLQESGPGLVKPSETLSLTCTVSGGSISSYYWSWLRQPAGSGLEWIGRLYVSGFTNYNPSLKSRVTLSLDPSRNQLSLKLSSVTAADTAVYYCAGDSGNYWGWFDPWGQGTLVTVSS
# VL: SYELTQPPSVSVSPGETASITCSGDQLGENYACWYQQKPGQSPVLVIYQDSKRPSGIPERFSGSNSGNTATLTISGTQALDEADYYCQAWDNSIVVFGGGTKLTVLG
# notes: also called KL2B242 (Fab); KL2B242 Fab
# B6: KL2B494 (antibody, V domains shown)
# VH: QVQLVESGGGLVQPGGSLRLSCAASGFTFSHYAMSWVRQAPGKGLEWVSTIGGSGGSTYYADSVKGRFTISRDNSKNTLYLQMNSLRAEDTAVYYCAKPHIVMVTALLYDGMDVWGQGTMVTVSS
# VL: SSELTQPPSVSVAPGQTARITCGGNNIGSKSVHWYQQKPGQAPVLVVYDDSDRPSGIPERFSGSNSGNTATLTISRVEAGDEADYYCQVWDSSSDHVVFGGGTKLTVLG
# notes: also called KL2B494 (Fab); KL2B494 Fab
# B7: KL2B53 (antibody, V domains shown)
# VH: EVQLVESGGGVVQPGRSLRLSCVASGFTFSSYDIHWVRQAPGKGLEWVAIISYDGSKKDYTDSVKGRFTISRDNSKNTLYLQMDSLRVEDSAVYSCARESGWSHYYYYGMDVWGQGTMVTVSS
# VL: DIVMTQSPSSLSASVGDRVTITCRASQDISNYLAWYQQKPGKVPKFLIYAASTLHSGVPSRFSGSGSGTDFTLTISSLQPEDVATYYCQKYNSAPYTFGQGTRLEIKR
# notes: also called KL2B53 (Fab); KL2B53 Fab
# B8: KL2B359 (scFv) (scFv, V domains shown)
# VH: QVQLQESGPGLVKPSQTLSLTCTVSGNSITSDYAWNWIRQFPGKRLEWIGYISYSGSTTYNPSLKSRVTISRDTSKNQFSLKLSSVTAADTAVYYCATGYYYGSGFWGQGTLVTVSS
# VL: EIVLTQSPATLSLSPGERATLSCRASESVEYFGTSLMHWYQQKPGQPPRLLIYAASNVESGIPARFSGSGSGTDFTLTISSVEPEDFAVYFCQQTRKVPYTFGGGTKVEIK
# notes: also called Clone KL2B359; rehumanized 11B6
# B9: KL2B30 (antibody, V domains shown)
# VH: QVQLQESGPGLVKPSETLSLTCTVSGGSISSYYWSWIRQPPGKGLEWIGYIYYSGSTNYNPSLKSRVTISVDTSKNQFSLKLSSVTAADTAVYYCAGTTIFGVVTPNFYYGMDVWGQGTTVTVSS
# VL: DIQMTQSPSFLSASVGDRVTITCRASQGISSYLAWYQQKPGKAPKFLIYAASTLQSGVPSRFSGSGSGTEFTLTISSLQPEDFATYYCQQLNSYPLTFGGGTKVEIKR
# notes: also called KL2B30 (Fab); KL2B30 Fab
# B10: KL2B413 (scFv) (scFv, V domains shown)
# VH: EVQLVESGGGLVQPGGSLRLSCAASGFTFSSYWMTWVRQAPGKGLEWVANIKQDGSERYYVDSVKGRFTISRDNAKNSLYLQMNSLRAEDTAVYYCARDQNYDILTGHYGMDVWGQGTTVTVSS
# VL: EIVLTQSPSFLSASVGDRVTITCRASQGISSYLSWYQQKPGKAPKLLIYATSTLQSGVPSRFSGSGSGTEFTLTISSLQPEDFATYYCQQLNSYPRTFGQGTKVEIK
# Target: T1, biotinylated recombinant hK2 protein (human, UniProt P20151 25-261, biotin label (EZ-Link Sulfo-NHS-LC-Biotin))
# T1 construct: In-house biotin-labelled recombinant hK2 used as the flow cytometry reagent; also called biotinylated hK2; Biotin-Hk2 protein
# Assay: flow cytometry; primary human T cells lentivirally transduced with the CAR (MOI 3), day 14, stained with biotinylated hK2 (1 ug/ml) then streptavidin-PE; UTD control gate 0.065
# T1 sequence (P20151 25-261): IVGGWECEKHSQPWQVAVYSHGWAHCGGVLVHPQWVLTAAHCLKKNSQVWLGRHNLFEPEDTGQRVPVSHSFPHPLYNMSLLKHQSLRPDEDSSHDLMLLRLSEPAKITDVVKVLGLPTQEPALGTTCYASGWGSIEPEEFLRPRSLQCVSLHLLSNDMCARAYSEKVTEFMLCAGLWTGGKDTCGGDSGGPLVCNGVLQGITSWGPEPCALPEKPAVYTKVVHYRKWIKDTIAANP
row,Binder,percent of CD3+ T cells in the PE-positive gate (hK2 CAR)
1,B1,45.1%
2,B2,59.9%
3,B3,56%

# Target: T2, soluble human Kallikrein-2 (hK2) (human, UniProt P20151 25-261)
# T2 construct: The construct used in SPR, ELISA and MSD screening is not defined; the stated signal peptide (1-18) is left out, and the pro-peptide (19-24) may or may not have been present; also called KLK2; soluble hK2
# Assay: SPR; antibody captured on anti-Fc sensor chip, soluble hK2 injected; 1:1 Langmuir fit, KD = koff/kon
# T2 sequence (P20151 25-261): as above
row,Binder,Kd
1,B4,0.078 nM
2,B5,0.04 nM
3,B6,0.053 nM
4,B7,0.08 nM
5,B8,0.7 to 1 nM
6,B9,0.46 nM
7,B10,34.3 nM

# Target: hK2 on target cells (VCaP, LNCaP/hK2, LNCaP, C4-2B) (human, UniProt P20151 19-261)
# Assay: cell-based or functional assay
# hK2 on target cells (VCaP, LNCaP/hK2, LNCaP, C4-2B), sequence (P20151 19-261): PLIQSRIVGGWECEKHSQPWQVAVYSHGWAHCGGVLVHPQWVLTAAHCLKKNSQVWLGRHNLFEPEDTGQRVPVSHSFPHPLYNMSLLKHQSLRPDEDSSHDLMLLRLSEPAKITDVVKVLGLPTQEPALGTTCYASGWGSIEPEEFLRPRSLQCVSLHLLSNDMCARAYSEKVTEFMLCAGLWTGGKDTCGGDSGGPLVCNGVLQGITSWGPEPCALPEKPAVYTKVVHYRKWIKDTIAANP
row,Binder,"tumor cell growth inhibition (TGI, %) of hK2 positive VCaP cells, real-time IncuCyte killing assay, 96 hours"
1,B1,~100%
2,B2,~100%
3,B3,~100%

# Target: T1, biotinylated recombinant hK2 protein
# Assay: flow cytometry; CAR-transduced JNL cells stained with biotinylated hK2 and streptavidin-PE
row,Binder,% of JNL cells stained with biotinylated hK2 (reported as CAR expression)
1,B1,46%
2,B2,50.8%
3,B3,73.7%
